Data from patent CN110790839A (JIANGSU HENGRUI MEDICINE CO; SHANGHAI HENGRUI …, dated 2020).

Target: T1, 人PD-1抗原(Cat.#10377H08H，Sino Biological) (human, UniProt Q15116 25-167)
T1 construct: Bought reagent, used as the analyte in Biacore; also called human PD-1; PD-1-His
Assay: SPR, Biacore T200; IgG captured on Protein A chip, human PD-1 as analyte, 1:1 Langmuir fit

T1 sequence (Q15116 25-167 limits assumed): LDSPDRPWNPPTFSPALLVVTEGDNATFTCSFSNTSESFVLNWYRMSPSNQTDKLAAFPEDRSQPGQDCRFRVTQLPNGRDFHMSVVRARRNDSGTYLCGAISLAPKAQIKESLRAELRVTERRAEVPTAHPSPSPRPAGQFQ

| Kd [nM] | Binder |
| --- | --- |
| 2.8 | Ab05 (antibody, human IgG4 S228P, kappa, F234A L235A, V domains shown, also called 抗PD-1抗体Ab05) VH: EVQLVESGGGLVQPGGSLRLSCAASGFTFSSYMMSWVRQAPGKGLEWVATISGGGANTYFADSVKGRFTISRDNAKNSLYLQMNSLRAEDTAVYYCARTQIGFTNWGQGTTVTVSS VL: DIQMTQSPSSLSASVGDRVTITCLASQTIGTWLTWYQQKPGKAPKLLIYTATSLADGVPSRFSGSGSGTDFTLTISSLQPEDFATYYCQQAYSIPWTFGGGTKVEIKR |
| 14.6 | H005-1 (antibody, human IgG4 S228P, kappa, F234A L235A, V domains shown, Parent antibody from WO2015085847; also called 亲本抗体H005-1; H005-1抗体) VH: EVQLVESGGGLVQPGGSLRLSCAASGFTFSSYMMSWVRQAPGKGLEWVATISGGGANTYYPDSVKGRFTISRDNAKNSLYLQMNSLRAEDTAVYYCARQLYYFDYWGQGTTVTVSS VL: DIQMTQSPSSLSASVGDRVTITCLASQTIGTWLTWYQQKPGKAPKLLIYTATSLADGVPSRFSGSGSGTDFTLTISSLQPEDFATYYCQQVYSIPWTFGGGTKVEIKR |
| 2.56 | Ab01 (antibody, human IgG4 S228P, kappa, F234A L235A, V domains shown, also called 抗PD-1抗体Ab01) VH: EVQLVESGGGLVQPGGSLRLSCAASGFTFSSYMMSWVRQAPGKGLEWVATISGGGANTYFADSVKGRFTISRDNAKNSLYLQMNSLRAEDTAVYYCARTQIGFTNWGQGTTVTVSS VL: DIQMTQSPSSLSASVGDIVTITCLASQTIGTWLTWYQQKPGKAPKLLIYTATSLADGVPSRFSGSGSGTDFTLTISSLQPEDFATYYCQQVYSIPWTFGGGTKVEIKR |
